Assay [1] concerns the target human lymphoma (HH) cell line (human). Kind of assay: binding to HH cells, dose-dependent (FIG. 5); receptor on the cells not named.
The target of assay [2] is T1, IL-2/15Rβ (CD122) ECD (human) (UniProt P14784).
T1 sequence: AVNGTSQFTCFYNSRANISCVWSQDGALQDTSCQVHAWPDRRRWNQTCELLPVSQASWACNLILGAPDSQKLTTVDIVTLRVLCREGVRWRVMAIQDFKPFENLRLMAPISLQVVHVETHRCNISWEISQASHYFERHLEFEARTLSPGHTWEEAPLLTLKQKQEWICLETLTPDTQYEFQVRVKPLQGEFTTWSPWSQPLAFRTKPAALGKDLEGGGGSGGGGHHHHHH
Kind of assay: SPR, Biacore 8K, complex captured on anti-human Fc CM5 chip, receptor ECD-His injected; ka and kd printed as NA.

EC50 and Kd data for one molecule are collected here from US20250145679A1.

B1: W327151-BMK1 (XENP24306) (Fc fusion, part only; not given: IL-15Ralpha-Fc chain, linker and Fc, not shown: a dimerising Fc or GST)
chain, part: NWVNVISDLKKIEDLIQSMHIDATLYTESNVHPSCKVTAMKCFLLELQVISLESGDASIHDTVQDLIILANNSLSSNGNVTESGCKECEELEEKNIKEFLQSFVHIVQMFINTS
Regarding B1, the concentration for a half-maximal effect (EC50) (in general, the concentration giving half of the maximal effect) in assay [1] came to 0.172 µM. In addition, the Kd (as a rule, the free concentration of one partner at which half of the binding sites on the other are occupied at equilibrium, for simple one-to-one binding) in assay [2] was 8.58 µM.
